This experiment has as its target human C3b (human, UniProt P01024 23-667; P01024 749-1663, limits assumed). In words: cell-based or functional assay.

Chain of human C3b (P01024 23-667 limits assumed, form in doubt, chain 1 of 2): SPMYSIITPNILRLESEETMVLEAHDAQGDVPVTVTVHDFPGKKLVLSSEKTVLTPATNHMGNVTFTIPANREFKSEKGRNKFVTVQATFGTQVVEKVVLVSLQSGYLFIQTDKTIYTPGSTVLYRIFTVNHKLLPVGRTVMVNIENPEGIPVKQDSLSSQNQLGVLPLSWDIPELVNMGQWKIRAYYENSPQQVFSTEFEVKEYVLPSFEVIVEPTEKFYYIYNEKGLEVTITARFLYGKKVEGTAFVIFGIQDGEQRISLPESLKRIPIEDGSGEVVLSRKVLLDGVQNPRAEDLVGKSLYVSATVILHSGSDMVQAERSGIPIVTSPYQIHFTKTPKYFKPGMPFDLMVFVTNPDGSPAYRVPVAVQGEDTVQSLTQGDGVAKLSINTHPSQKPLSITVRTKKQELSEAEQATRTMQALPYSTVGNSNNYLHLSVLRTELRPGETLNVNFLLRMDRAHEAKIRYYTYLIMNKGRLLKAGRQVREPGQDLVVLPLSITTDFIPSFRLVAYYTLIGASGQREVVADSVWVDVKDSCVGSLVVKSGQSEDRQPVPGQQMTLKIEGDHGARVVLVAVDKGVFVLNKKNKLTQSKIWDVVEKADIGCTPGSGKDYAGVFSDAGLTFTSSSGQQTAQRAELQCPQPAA
Chain of human C3b (P01024 749-1663 limits assumed, form in doubt, chain 2 of 2): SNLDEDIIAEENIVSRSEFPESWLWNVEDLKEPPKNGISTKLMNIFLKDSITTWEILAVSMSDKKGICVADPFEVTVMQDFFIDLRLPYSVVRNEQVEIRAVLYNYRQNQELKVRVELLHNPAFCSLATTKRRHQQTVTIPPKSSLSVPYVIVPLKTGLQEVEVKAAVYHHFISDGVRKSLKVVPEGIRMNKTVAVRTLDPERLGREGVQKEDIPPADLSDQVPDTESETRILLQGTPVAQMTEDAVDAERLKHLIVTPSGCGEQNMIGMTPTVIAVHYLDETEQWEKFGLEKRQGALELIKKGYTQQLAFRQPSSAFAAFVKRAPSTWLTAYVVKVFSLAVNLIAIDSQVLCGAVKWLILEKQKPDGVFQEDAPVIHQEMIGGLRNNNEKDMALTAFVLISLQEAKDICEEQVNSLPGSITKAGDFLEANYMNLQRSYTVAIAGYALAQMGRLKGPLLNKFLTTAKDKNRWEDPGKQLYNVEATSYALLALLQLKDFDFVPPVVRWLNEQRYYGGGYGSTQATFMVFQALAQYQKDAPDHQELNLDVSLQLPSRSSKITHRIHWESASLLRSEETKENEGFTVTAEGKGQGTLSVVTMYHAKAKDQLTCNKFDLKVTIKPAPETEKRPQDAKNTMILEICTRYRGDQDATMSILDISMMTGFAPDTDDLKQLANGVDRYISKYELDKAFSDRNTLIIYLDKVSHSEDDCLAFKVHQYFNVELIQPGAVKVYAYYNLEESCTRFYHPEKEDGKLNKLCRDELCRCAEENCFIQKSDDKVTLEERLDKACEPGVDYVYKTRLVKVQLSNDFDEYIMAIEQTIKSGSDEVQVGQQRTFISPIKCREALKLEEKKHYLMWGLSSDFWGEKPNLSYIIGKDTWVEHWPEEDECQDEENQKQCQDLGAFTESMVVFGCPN

B1: small polypeptide comprising CCPs 8-10 of CR1 (SEQ ID NO:3) (receptor)
chain: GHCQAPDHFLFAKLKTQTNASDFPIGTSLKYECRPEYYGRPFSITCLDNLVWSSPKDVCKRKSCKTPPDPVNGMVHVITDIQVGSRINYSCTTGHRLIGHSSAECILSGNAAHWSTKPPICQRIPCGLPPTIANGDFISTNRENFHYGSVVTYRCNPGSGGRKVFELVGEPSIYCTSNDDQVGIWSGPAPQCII
For the molecule B1, the “IC50 of inhibition of MAC formation in zymosan activated human serum (Wieslab Complement system Screen kit ELISA, FIG. 9)” value amounted to 125 nM.

Values taken from patent publication US20260217791A1 (COMPLEMENT THERAPEUTICS, published 2026).
